Assay [1] deals with Deinococcus radiodurans phytochrome (DrBphP) photosensory module, biliverdin-bound, with C-terminal AviTag and HisTag (Deinococcus radiodurans). Description: SEC.
Assay [2] addresses Rhodopseudomonas palustris BphP1 (RpBphP1), mammalian two-hybrid fusion (Rhodopseudomonas palustris). Description: two-hybrid.
Assay [3] addresses DrBphP photosensory module, biliverdin-bound, yeast two-hybrid bait (Deinococcus radiodurans (entry strain …, UniProt Q9RZA4, biliverdin-bound)). Description: two-hybrid.

DrBphP photosensory module, biliverdin-bound, yeast two-hybrid bait (Deinococcus radiodurans, sequence (Q9RZA4 whole entry, looked up, tested part not stated): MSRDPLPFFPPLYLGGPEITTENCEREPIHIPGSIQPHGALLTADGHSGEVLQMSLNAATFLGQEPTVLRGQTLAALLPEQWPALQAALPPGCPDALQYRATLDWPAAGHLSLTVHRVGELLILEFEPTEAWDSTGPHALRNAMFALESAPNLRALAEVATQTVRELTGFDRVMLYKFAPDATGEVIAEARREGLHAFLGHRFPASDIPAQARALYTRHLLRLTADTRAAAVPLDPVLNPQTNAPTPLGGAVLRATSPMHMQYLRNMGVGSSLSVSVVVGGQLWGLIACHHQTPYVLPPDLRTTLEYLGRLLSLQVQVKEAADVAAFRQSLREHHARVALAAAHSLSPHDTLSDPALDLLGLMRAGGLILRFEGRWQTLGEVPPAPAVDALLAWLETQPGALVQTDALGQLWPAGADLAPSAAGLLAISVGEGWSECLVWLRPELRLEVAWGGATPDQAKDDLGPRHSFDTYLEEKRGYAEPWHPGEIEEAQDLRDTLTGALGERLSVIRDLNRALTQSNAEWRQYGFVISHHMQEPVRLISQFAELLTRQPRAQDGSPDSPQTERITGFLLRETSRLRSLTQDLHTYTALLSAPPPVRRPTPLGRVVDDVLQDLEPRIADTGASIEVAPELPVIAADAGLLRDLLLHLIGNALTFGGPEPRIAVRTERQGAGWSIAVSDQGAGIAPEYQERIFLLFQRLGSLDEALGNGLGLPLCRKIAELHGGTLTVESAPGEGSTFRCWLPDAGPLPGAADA

As a reminder, the stoichiometry N is a count of units in the complex or per binding partner. In the case of “Deinococcus radiodurans phytochrome (DrBphP) photosensory module, biliverdin-bound, with C-terminal AviTag and HisTag (domain or fragment)”, the stoichiometry N in assay [1] was 2.

Regarding “PpsR2, mammalian two-hybrid fusion (natural protein)”, in assay [2], the fold increase of luciferase expression, 775-nm light over dark was found to be 2.95 fold.

For “Q-PAS1, a truncated form of PpsR2, mammalian two-hybrid fusion (domain or fragment)”, in assay [2], the fold increase of luciferase expression, 775-nm light over dark is 2.02 fold.

B1: LDB-4 nanobody, yeast two-hybrid prey (VHH)
VHH: EVQLQASGGGFVQPGGSLRLSCAASGDTSYLYSMGWFRQAPGKEREFVSAISWWWNLTQYYADSVKGRFTISRDNSKNTVYLQMNSLRAEDTATYYCAWSIYFPPGNDYNGYHYWGQGTQVTVSS
In the case of B1, in assay [3], the binding result was “binds”.

B2: LDB-7 nanobody, yeast two-hybrid prey (VHH)
VHH: EVQLQASGGGFVQPGGSLRLSCAASGSTSDFESMGWFRQAPGKEREFVSAISSWFTNPPYYADSVKGRFTISRDNSKNTVYLQMNSLRAEDTATYYCAHRSIWYHPTYWGQGTQVTVSS
Consider B2, for which the binding result in assay [3] was “binds”.

B3: LDB-6 nanobody, yeast two-hybrid prey (VHH)
VHH: EVQLQASGGGFVQPGGSLRLSCAASGFFSNWSDMGWFRQAPGKEREFVSAISFWADGTEYYADSVKGRFTISRDNSKNTVYLQMNSLRAEDTATYYCAWYGPVNGFYMFDYWGQGTQVTVSS
As to B3, in assay [3], the binding result was “binds”.

These data come from publication doi:10.1101/2020.07.09.174003 (bioRxiv, 2020).
